Results: patent publication US20200407419A1 (LONZA SALES, published 2020)

B1: exosomes with trimeric CD40L-PTGFRN construct pCB-766 (tag-less, lacking the C-terminal GFP) (ligand)
chain: MQKGDQNPQIAAHVISEASSKTTSVLQWAEKGYYTMSNNLVTLENGKQLTVKRQGLYYIYAQVTFCSNREASSQAPFIASLCLKSPGRFERILLRAANTHSSAKPCGQQSIHLGGVFELQPGASVFVNVTDPSQVSHGTGFTSFGLLKLGSGGSGGSGGSGMQKGDQNPQIAAHVISEASSKTTSVLQWAEKGYYTMSNNLVTLENGKQLTVKRQGLYYIYAQVTFCSNREASSQAPFIASLCLKSPGRFERILLRAANTHSSAKPCGQQSIHLGGVFELQPGASVFVNVTDPSQVSHGTGFTSFGLLKLGSGGSGGSGGSGMQKGDQNPQIAAHVISEASSKTTSVLQWAEKGYYTMSNNLVTLENGKQLTVKRQGLYYIYAQVTFCSNREASSQAPFIASLCLKSPGRFERILLRAANTHSSAKPCGQQSIHLGGVFELQPGASVFVNVTDPSQVSHGTGFTSFGLLKLSAGGGGSGGGGSRVVRVPTATLVRVVGTELVIPCNVSDYDGPSEQNFDWSFSSLGSSFVELASTWEVGFPAQLYQERLQRGEILLRRTANDAVELHIKNVQPSDQGHYKCSTPSTDATVQGNYEDTVQVKVLADSLHVGPSARPPPSLSLREGEPFELRCTAASASPLHTHLALLWEVHRGPARRSVLALTHEGRFHPGLGYEQRYHSGDVRLDTVGSDAYRLSVSRALSADQGSYRCIVSEWIAEQGNWQEIQEKAVEVATVVIQPSVLRAAVPKNVSVAEGKELDLTCNITTDRADDVRPEVTWSFSRMPDSTLPGSRVLARLDRDSLVHSSPHVALSHVDARSYHLLVRDVSKENSGYYYCHVSLWAPGHNRSWHKVAEAVSSPAGVGVTWLEPDYQVYLNASKVPGFADDPTELACRVVDTKSGEANVRFTVSWYYRMNRRSDNVVTSELLAVMDGDWTLKYGERSKQRAQDGDFIFSKEHTDTFNFRIQRTTEEDRGNYYCVVSAWTKQRNNSWVKSKDVFSKPVNIFWALEDSVLVVKARQPKPFFAAGNTFEMTCKVSSKNIKSPRYSVLIMAEKPVGDLSSPNETKYIISLDQDSVVKLENWTDASRVDGVVLEKVQEDEFRYRMYQTQVSDAGLYRCMVTAWSPVRGSLWREAATSLSNPIEIDFQTSGPIFNASVHSDTPSVIRGDLIKLFCIITVEGAALDPDDMAFDVSWFAVHSFGLDKAPVLLSSLDRKGIVTTSRRDWKSDLSLERVSVLEFLLQVHGSEDQDFGNYYCSVTPWVKSPTGSWQKEAEIHSKPVFITVKMDVLNAFKYPLLIGVGLSTVIGLLSCLIGYCSSHWCCKKEVQETRRERRRLMSMEMD

How the values were obtained:
[1] = molecular target: IL-7 receptor (IL-7R) on PBMCs (UniProt P16871); test: cell-based or functional assay
IL-7 receptor (IL-7R) on PBMCs, sequence (P16871 21-459 limits assumed): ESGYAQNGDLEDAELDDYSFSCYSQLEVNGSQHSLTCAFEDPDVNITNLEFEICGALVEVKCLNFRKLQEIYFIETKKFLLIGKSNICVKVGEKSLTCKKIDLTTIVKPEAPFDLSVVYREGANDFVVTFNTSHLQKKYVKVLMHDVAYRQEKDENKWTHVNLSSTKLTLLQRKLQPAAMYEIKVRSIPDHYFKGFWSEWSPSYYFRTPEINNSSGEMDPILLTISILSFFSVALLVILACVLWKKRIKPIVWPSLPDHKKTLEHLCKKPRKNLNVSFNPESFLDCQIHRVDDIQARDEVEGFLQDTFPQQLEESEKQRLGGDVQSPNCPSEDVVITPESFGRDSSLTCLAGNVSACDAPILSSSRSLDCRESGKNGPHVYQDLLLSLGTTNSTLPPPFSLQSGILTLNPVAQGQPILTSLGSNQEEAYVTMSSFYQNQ

CD40 on human B-cells = CD40 on human B-cells (human, UniProt P25942 21-277); test: cell-based or functional assay
CD40 on human B-cells, sequence (P25942 21-277): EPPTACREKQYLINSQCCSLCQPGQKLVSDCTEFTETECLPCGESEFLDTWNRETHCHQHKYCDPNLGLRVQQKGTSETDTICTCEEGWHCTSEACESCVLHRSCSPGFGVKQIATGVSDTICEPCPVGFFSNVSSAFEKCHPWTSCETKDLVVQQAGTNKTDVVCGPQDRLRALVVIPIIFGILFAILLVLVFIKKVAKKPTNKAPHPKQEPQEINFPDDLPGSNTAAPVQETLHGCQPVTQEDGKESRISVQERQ

| Molecule | IC50 (p/ml) of reduction of IL-7R levels on PBMCs [1] [p/ml] | EC50 of B-cell activation (CD69 positivity on B-cells), ng/mL of CD40L (CD40 on human B-cells) [ng/mL] | EC50 of B-cell activation (CD69 positivity on B-cells), particles/mL (CD40 on human B-cells) [particles/mL] |
| --- | --- | --- | --- |
| IL-7 exosomes from the pDisplay plasmid encoding a fusion of IL-7 and PDGF Receptor (ligand) | 1.1e+11 | – | – |
| exosomes with trimeric CD40L-PTGFRN construct pCB-527 (PTGFRN-trimeric CD40L-GFP) (ligand) | – | 1.89 | 4.53e+08 |
| recombinant human CD40L (Biolegend, Catalog No. 591702) (from UniProt P29965 113-261) (ligand) | – | 28.5 | – |
| B1 | – | 1.68 | 6.63e+08 |
